Source: article PMC10432815
Blank lines part the entries; values can stand above or below the molecule they belong to.

Experiments:
medaka Opn5m (medaka) [1] = target: medaka Opn5m (medaka)
medaka Opn5m (medaka) [2] = target: medaka Opn5m (medaka); remark: listed apart in the source

relative aequorin luminescence (calcium response) after UV light, 293TΔGQ cells cotransfected with OlOpn5m and medaka Gα: against OlGαq, OlGα11a and OlGα11b (medaka Opn5m (medaka) [1]): 24 fold
Molecule: medaka Gα11c (natural protein)

relative aequorin luminescence (calcium response) after UV light, 293TΔGQ cells cotransfected with OlOpn5m and medaka Gα: against OlGαq, OlGα11a and OlGα11b (medaka Opn5m (medaka) [1]): 24 fold
Molecule: medaka Gα14a (natural protein)

relative aequorin luminescence (calcium response) after UV light, ATR-reconstituted OlOpn5m in 293TΔGQ cells: mGα14 against mGαq (medaka Opn5m (medaka) [2]): 27 fold
B1: mouse Gα14 (natural protein)
chain: MAGCCCLSAEEKESQRISAEIERQLRRDKKDARRELKLLLLGTGESGKSTFIKQMRIIHGSGYSDEDRKGFTKLVYQNIFTAMQAMIRAMDTLRIQYMCEQNKENAQIIREVEVDKVTALSRDQVAAIKQLWLDPGIQECYDRRREYQLSDSAKYYLTDIERIAMPSFVPTQQDVLRVRVPTTGIIEYPFDLENIIFRMVDVGGQRSERRKWIHCFESVTSIIFLVALSEYDQVLAECDNENRMEESKALFRTIITYPWFLNSSVILFLNKKDLLEEKIMYSHLISYFPEYTGPKQDVKAARDFILKLYQDQNPDKEKVIYSHFTCATDTENIRFVFAAVKDTILQLNLREFNLV
